# Results taken from patent US20130177579A1 (BIOALLIANCE C V, published 2013).
# Key:
# [1] = molecular target: human transferrin receptor expressed by nonhematopoietic cancer cells (human) (UniProt P02786); experiment: FACS, SU.86.86 cells, 5 ug
# [2] = molecular target: human transferrin receptor expressed by nonhematopoietic cancer cells (human) (UniProt P02786); experiment: FACS, Hep 3B2.1-7 cells, 5 ug
# [3] = molecular target: human transferrin receptor expressed by nonhematopoietic cancer cells (human) (UniProt P02786); experiment: FACS, WiDr cells, 5 ug
# [4] = molecular target: human transferrin receptor expressed by nonhematopoietic cancer cells (human) (UniProt P02786); experiment: FACS, Hep G2 cells, 5 ug
# [5] = molecular target: human transferrin receptor expressed by nonhematopoietic cancer cells (human) (UniProt P02786); experiment: FACS, Kato III cells, 5 ug
# [6] = molecular target: human transferrin receptor expressed by normal human cells (RBC, PMN, lymphocytes, monocytes, platelets, HUVEC) (human) (UniProt P02786); experiment: FACS, platelets, donor D005
# Chain of human transferrin receptor expressed by normal human cells (RBC, PMN, lymphocytes, monocytes, platelets, HUVEC) (human) (P02786 whole entry G142S): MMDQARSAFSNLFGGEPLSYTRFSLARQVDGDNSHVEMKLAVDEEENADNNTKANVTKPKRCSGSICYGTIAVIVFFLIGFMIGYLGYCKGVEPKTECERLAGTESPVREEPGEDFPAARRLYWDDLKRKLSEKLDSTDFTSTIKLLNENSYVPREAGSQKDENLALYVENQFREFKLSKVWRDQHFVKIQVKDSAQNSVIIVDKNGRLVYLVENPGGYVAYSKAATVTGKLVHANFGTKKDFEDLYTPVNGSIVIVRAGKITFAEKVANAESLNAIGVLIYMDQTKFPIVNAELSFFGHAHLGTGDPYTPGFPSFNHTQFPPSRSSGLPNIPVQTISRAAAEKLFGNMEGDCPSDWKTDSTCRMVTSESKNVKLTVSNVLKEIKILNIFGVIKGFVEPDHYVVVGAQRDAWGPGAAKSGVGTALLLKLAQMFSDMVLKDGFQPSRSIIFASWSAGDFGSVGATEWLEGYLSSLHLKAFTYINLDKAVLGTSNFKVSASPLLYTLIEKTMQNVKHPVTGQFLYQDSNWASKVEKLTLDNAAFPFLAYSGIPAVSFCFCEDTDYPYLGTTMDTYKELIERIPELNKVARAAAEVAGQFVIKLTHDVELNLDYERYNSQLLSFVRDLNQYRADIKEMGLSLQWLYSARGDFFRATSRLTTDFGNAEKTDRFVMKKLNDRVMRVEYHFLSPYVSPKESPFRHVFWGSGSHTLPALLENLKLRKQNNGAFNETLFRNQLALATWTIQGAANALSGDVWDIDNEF
# [7] = molecular target: human transferrin receptor expressed by nonhematopoietic cancer cells (human) (UniProt P02786); experiment: FACS, Panc02.03B cells, 5 ug
# [8] = molecular target: human transferrin receptor expressed by normal human cells (RBC, PMN, lymphocytes, monocytes, platelets, HUVEC) (human) (UniProt P02786); experiment: FACS, monocytes, donor D005
# [9] = molecular target: human transferrin receptor expressed by nonhematopoietic cancer cells (human) (UniProt P02786); experiment: FACS, PC3 cells, 5 ug
# [10] = molecular target: human transferrin receptor expressed by normal human cells (RBC, PMN, lymphocytes, monocytes, platelets, HUVEC) (human) (UniProt P02786); experiment: FACS, RBC, donor D005
# [11] = molecular target: human transferrin receptor expressed by nonhematopoietic cancer cells (human) (UniProt P02786); experiment: FACS, HEC-1-A cells, 5 ug
# [12] = molecular target: human transferrin receptor expressed by nonhematopoietic cancer cells (human) (UniProt P02786); experiment: FACS, H520 cells, 5 ug
# [13] = molecular target: human transferrin receptor expressed by normal human cells (RBC, PMN, lymphocytes, monocytes, platelets, HUVEC) (human) (UniProt P02786); experiment: FACS, PMN, donor D102
# [14] = molecular target: human transferrin receptor expressed by normal human cells (RBC, PMN, lymphocytes, monocytes, platelets, HUVEC) (human) (UniProt P02786); experiment: FACS, platelets, donor D102
# [15] = molecular target: human transferrin receptor expressed by normal human cells (RBC, PMN, lymphocytes, monocytes, platelets, HUVEC) (human) (UniProt P02786); experiment: FACS, monocytes, donor D014
# [16] = molecular target: human transferrin receptor expressed by nonhematopoietic cancer cells (human) (UniProt P02786); experiment: FACS, COLO205 cells, 5 ug
# [17] = molecular target: human transferrin receptor expressed by nonhematopoietic cancer cells (human) (UniProt P02786); experiment: FACS, DLD-1 cells, 5 ug
# [18] = molecular target: human transferrin receptor expressed by normal human cells (RBC, PMN, lymphocytes, monocytes, platelets, HUVEC) (human) (UniProt P02786); experiment: FACS, HUVEC, 5 ug/ml
# [19] = molecular target: human transferrin receptor expressed by normal human cells (RBC, PMN, lymphocytes, monocytes, platelets, HUVEC) (human) (UniProt P02786); experiment: FACS, lymphocytes, donor D014
# [20] = molecular target: human transferrin receptor expressed by normal human cells (RBC, PMN, lymphocytes, monocytes, platelets, HUVEC) (human) (UniProt P02786); experiment: FACS, platelets, donor D014
# [21] = molecular target: human transferrin receptor expressed by normal human cells (RBC, PMN, lymphocytes, monocytes, platelets, HUVEC) (human) (UniProt P02786); experiment: FACS, RBC, donor D014
# [22] = molecular target: human transferrin receptor expressed by normal human cells (RBC, PMN, lymphocytes, monocytes, platelets, HUVEC) (human) (UniProt P02786); experiment: FACS, PMN, donor D005
# [23] = molecular target: human transferrin receptor expressed by nonhematopoietic cancer cells (human) (UniProt P02786); experiment: FACS, SNU-16 cells, 5 ug
# [24] = molecular target: human transferrin receptor expressed by normal human cells (RBC, PMN, lymphocytes, monocytes, platelets, HUVEC) (human) (UniProt P02786); experiment: FACS, platelets, donor D016
# [25] = molecular target: human transferrin receptor expressed by normal human cells (RBC, PMN, lymphocytes, monocytes, platelets, HUVEC) (human) (UniProt P02786); experiment: FACS, lymphocytes, donor D016
# [26] = molecular target: human transferrin receptor expressed by normal human cells (RBC, PMN, lymphocytes, monocytes, platelets, HUVEC) (human) (UniProt P02786); experiment: FACS, RBC, donor D102
# [27] = molecular target: human transferrin receptor expressed by nonhematopoietic cancer cells (human) (UniProt P02786); experiment: FACS, KLE cells, 5 ug
# [28] = molecular target: human transferrin receptor expressed by normal human cells (RBC, PMN, lymphocytes, monocytes, platelets, HUVEC) (human) (UniProt P02786); experiment: FACS, PMN, donor D016
# [29] = molecular target: human transferrin receptor expressed by normal human cells (RBC, PMN, lymphocytes, monocytes, platelets, HUVEC) (human) (UniProt P02786); experiment: FACS, lymphocytes, donor D005
# [30] = molecular target: human transferrin receptor expressed by nonhematopoietic cancer cells (human) (UniProt P02786); experiment: FACS, H727 cells, 5 ug
# [31] = molecular target: human transferrin receptor expressed by nonhematopoietic cancer cells (human) (UniProt P02786); experiment: FACS, OMC-3 cells, 5 ug
# [32] = molecular target: human transferrin receptor expressed by normal human cells (RBC, PMN, lymphocytes, monocytes, platelets, HUVEC) (human) (UniProt P02786); experiment: FACS, monocytes, donor D102
# [33] = molecular target: human transferrin receptor expressed by normal human cells (RBC, PMN, lymphocytes, monocytes, platelets, HUVEC) (human) (UniProt P02786); experiment: FACS, PMN, donor D014
# [34] = molecular target: human transferrin receptor expressed by nonhematopoietic cancer cells (human) (UniProt P02786); experiment: FACS, H358 cells, 5 ug
# [35] = molecular target: human transferrin receptor expressed by normal human cells (RBC, PMN, lymphocytes, monocytes, platelets, HUVEC) (human) (UniProt P02786); experiment: FACS, RBC, donor D016
# [36] = molecular target: human transferrin receptor expressed by nonhematopoietic cancer cells (human) (UniProt P02786); experiment: FACS, NCI-N87 cells, 5 ug
# [37] = molecular target: human transferrin receptor expressed by nonhematopoietic cancer cells (human) (UniProt P02786); experiment: FACS, DU145 cells, 5 ug
# [38] = molecular target: human transferrin receptor expressed by nonhematopoietic cancer cells (human) (UniProt P02786); experiment: FACS, A549 cells, 5 ug
# [39] = molecular target: human transferrin receptor expressed by normal human cells (RBC, PMN, lymphocytes, monocytes, platelets, HUVEC) (human) (UniProt P02786); experiment: FACS, lymphocytes, donor D102
# [40] = molecular target: human transferrin receptor expressed by nonhematopoietic cancer cells (human) (UniProt P02786); experiment: FACS, SK-OV-3 cells, 5 ug
# [41] = molecular target: human transferrin receptor expressed by normal human cells (RBC, PMN, lymphocytes, monocytes, platelets, HUVEC) (human) (UniProt P02786); experiment: FACS, monocytes, donor D016
# [42] = molecular target: human transferrin receptor expressed by nonhematopoietic cancer cells (human) (UniProt P02786); experiment: FACS, 22Rv1 cells, 5 ug
# [43] = molecular target: human transferrin receptor expressed by nonhematopoietic cancer cells (human) (UniProt P02786); experiment: FACS, MDA-MB-453 cells, 5 ug
# [44] = molecular target: human transferrin receptor expressed by nonhematopoietic cancer cells (human) (UniProt P02786); experiment: FACS, Panc-1 cells, 5 ug
# [45] = molecular target: human transferrin receptor expressed by Jurkat cells (human) (UniProt P02786); experiment: FACS, Jurkat cells, 1 ug
# Chain of human transferrin receptor expressed by Jurkat cells (human) (P02786 whole entry G142S): as above
# [46] = molecular target: human CD41a on platelets (human) (UniProt P08514); experiment: FACS, platelets, donor D014, positive control
# Chain of human CD41a on platelets (human) (P08514 32-1039): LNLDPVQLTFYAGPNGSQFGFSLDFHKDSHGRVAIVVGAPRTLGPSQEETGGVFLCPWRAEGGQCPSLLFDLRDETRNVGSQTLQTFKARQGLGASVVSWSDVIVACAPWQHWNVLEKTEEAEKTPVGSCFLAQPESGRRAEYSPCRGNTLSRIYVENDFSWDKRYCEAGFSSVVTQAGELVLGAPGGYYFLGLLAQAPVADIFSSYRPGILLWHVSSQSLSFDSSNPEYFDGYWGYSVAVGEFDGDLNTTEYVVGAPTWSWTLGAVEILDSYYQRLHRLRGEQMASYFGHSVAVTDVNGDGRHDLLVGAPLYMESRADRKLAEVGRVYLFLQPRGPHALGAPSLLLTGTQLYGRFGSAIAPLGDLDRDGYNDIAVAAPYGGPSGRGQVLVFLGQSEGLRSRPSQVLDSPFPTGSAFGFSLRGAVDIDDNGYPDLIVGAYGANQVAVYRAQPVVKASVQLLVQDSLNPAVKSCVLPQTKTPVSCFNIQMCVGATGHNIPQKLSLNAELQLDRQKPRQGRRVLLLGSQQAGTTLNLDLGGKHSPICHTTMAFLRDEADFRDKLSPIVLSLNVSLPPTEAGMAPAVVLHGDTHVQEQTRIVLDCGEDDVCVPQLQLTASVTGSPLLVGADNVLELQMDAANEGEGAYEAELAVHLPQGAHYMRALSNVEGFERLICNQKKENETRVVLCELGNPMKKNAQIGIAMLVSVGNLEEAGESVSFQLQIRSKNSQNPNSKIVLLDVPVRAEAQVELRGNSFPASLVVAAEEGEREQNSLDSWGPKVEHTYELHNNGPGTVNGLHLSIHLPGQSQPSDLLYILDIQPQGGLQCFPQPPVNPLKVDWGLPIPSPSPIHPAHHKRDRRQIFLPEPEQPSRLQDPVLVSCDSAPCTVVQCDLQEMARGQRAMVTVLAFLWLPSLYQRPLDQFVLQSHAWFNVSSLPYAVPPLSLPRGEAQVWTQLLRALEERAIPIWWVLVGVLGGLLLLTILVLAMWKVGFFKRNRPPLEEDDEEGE
# [47] = molecular target: human CD41a on platelets (human) (UniProt P08514); experiment: FACS, platelets, donor D005, positive control
# [48] = molecular target: human CD41a on platelets (human) (UniProt P08514); experiment: FACS, platelets, donor D102, positive control
# [49] = molecular target: human CD41a on platelets (human) (UniProt P08514); experiment: FACS, platelets, donor D016, positive control
# Chain of human transferrin receptor expressed by nonhematopoietic cancer cells (human) (P02786 whole entry G142S): as the sequence (P02786 whole entry G142S) above
substance,measurement,setting,value
"isotype control mouse IgM, kappa (BD Pharmingen Cat. No. 557275) (antibody)",MFI,[1],6 MFI
same,MFI,[2],5 MFI
same,MFI,[3],5 MFI
same,MFI,[4],4 MFI
same,MFI,[5],7 MFI
same,% positive cell binding,[6],< 1%
same,MFI,[7],5 MFI
same,% positive cell binding,[8],3%
same,MFI,[9],3 MFI
same,% positive cell binding,[10],< 1%
same,MFI,[11],13 MFI
same,MFI,[12],5 MFI
same,% positive cell binding,[13],< 1%
same,% positive cell binding,[14],< 1%
same,% positive cell binding,[15],< 1%
same,MFI,[16],3 MFI
same,MFI,[17],5 MFI
same,% positive cell binding,[18],1%
same,% positive cell binding,[19],1%
same,% positive cell binding,[20],< 1%
same,% positive cell binding,[21],< 1%
same,% positive cell binding,[22],< 1%
same,MFI,[23],5 MFI
same,% positive cell binding,[24],< 1%
same,% positive cell binding,[25],1%
same,% positive cell binding,[26],< 1%
same,MFI,[27],10 MFI
same,% positive cell binding,[28],< 1%
same,% positive cell binding,[29],4%
same,MFI,[30],9 MFI
same,MFI,[31],16 MFI
same,% positive cell binding,[32],2%
same,% positive cell binding,[33],< 1%
same,MFI,[34],4 MFI
same,% positive cell binding,[35],< 1%
same,MFI,[36],33 MFI
same,MFI,[37],4 MFI
same,MFI,[38],8 MFI
same,% positive cell binding,[39],3%
same,MFI,[40],5 MFI
same,% positive cell binding,[41],1%
same,MFI,[42],7 MFI
same,MFI,[43],4 MFI
same,MFI,[44],6 MFI
anti-human transferrin receptor antibody MEM189 (Abcam Cat. No. ab1086),% of gated cells,[45],100%
PE-conjugated anti-human CD41a (Southern Biotech Cat. No. 9391-09) (antibody),% positive cell binding,[46],97%
same,% positive cell binding,[47],79%
same,% positive cell binding,[48],78%
same,% positive cell binding,[49],95%
